Series [1] deals with Fas R86A mutant tested for E09 binding (human) (UniProt P25445). The series can be described thus: ELISA. A general note: In an ELISA, binding on a coated surface is turned into a signal by an enzyme label.
The target of series [2] is His-Fas^R87A (human). In words: ELISA.
Series [3] deals with His-Fas (His-tagged human Fas extracellular domain, wild type) (human). In words: ELISA.
Series [4] addresses Fas (CD95), endogenous on human cells (human (endogenous in OVCAR3, Jurkat, PBMC-derived T cells)) (UniProt P25445).
Series [5] addresses T1, Fc-tagged Fas (recombinant extracellular domain of Fas with a C-terminal Fc) (human, UniProt P25445 26-173).
T1 construct: human Fas (CD95) extracellular domain; also called Fas-IgG1 Fc; IgG4-Fc-tagged Fas; source: FreeStyle CHO-S cells, purified (protein A columns); not shown: Fc (IgG4 in the methods, IgG1 in the results), C-terminal, kept
T1 sequence (looked up): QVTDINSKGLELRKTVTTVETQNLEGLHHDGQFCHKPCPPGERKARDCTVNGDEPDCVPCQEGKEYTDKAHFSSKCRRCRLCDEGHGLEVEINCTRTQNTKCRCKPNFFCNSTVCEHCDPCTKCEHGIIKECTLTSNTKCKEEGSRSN
The series can be described thus: ELISA; Fc-tagged Fas (2 μg/ml) coated on 96-well plates; His-tagged FasL (single or tandem) in 2-fold dilutions from 50 to 0.048 nM, 1 h at 37 °C. The following applies: both partners purified.

Series [6] concerns the target T2, His-Fas (His-tagged human Fas extracellular domain, wild type) (human).
T2 chain: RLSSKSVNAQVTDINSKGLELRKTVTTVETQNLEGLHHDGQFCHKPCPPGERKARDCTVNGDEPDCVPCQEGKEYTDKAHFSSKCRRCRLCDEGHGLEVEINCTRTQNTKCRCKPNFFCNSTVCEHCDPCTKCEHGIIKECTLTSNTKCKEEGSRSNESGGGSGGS
In words: BLI.

Series [7] deals with T2, His-Fas (His-tagged human Fas …). The series can be described thus: BLI. (In BLI a coated tip is dipped into the sample, and binding shifts an interference pattern.)
Series [8] deals with the molecule itself. The series can be described thus: non-reducing, partially denaturing SDS-PAGE with anti-His immunoblot; purified His-tagged FasL added to Jurkat cells in culture wells, 30 min; soup and total lysates together; FasL trimer formation. Background: In western blotting, separated proteins are transferred to a membrane and probed.

Consider CH11 IgG1, for which the Kd – broadly, the constant that tells how readily two partners part at equilibrium – in series [1] was 2.02 nM; in series [2], 2.2 nM; in series [3], 0.983 nM.
For “His_FasL^TL1A (His-tagged FasL with the cognate region of TL1A, DTYGIV to HELGLA) (ligand)”, the cytotoxic activity against T cells (cell survival assay, Fig. 3F, G) in series [4] is greater than 70%.

B1: His_FasL^WT-A247E (tandem: wild-type FasL unit and A247E unit) (ligand, human)
chain: GGSPSPPPEKKELRKVAHLTGKSNSRSMPLEWEDTYGIVLLSGVKYKKGGLVINETGLYFVYSKVYFRGQSCNNLPLSHKVYMRNSKYPQDLVMMEGKMMSYCTTGQMWARSSYLGAVFNLTSADHLYVNVSELSLVNFEESQTFFGLYKLGGGSGGGSGGGSPSPPPEKKELRKVAHLTGKSNSRSMPLEWEDTYGIVLLSGVKYKKGGLVINETGLYFVYSKVYFRGQSCNNLPLSHKVYMRNSKYPQDLVMMEGKMMSYCTTGQMWARSSYLGEVFNLTSADHLYVNVSELSLVNFEESQTFFGLYKL
notes: linker between the His tag and the first FasL unit; linker between the two FasL units; source: CHO expression system, purified (HisTrap Ni Sepharose); not shown: His7, N-terminal, kept
As to B1, the binding result in series [5] is recorded as “binds”.

B2: His_FasL^WT-G277S (tandem: wild-type FasL unit and G277S unit) (ligand, human)
chain: GGSPSPPPEKKELRKVAHLTGKSNSRSMPLEWEDTYGIVLLSGVKYKKGGLVINETGLYFVYSKVYFRGQSCNNLPLSHKVYMRNSKYPQDLVMMEGKMMSYCTTGQMWARSSYLGAVFNLTSADHLYVNVSELSLVNFEESQTFFGLYKLGGGSGGGSGGGSPSPPPEKKELRKVAHLTGKSNSRSMPLEWEDTYGIVLLSGVKYKKGGLVINETGLYFVYSKVYFRGQSCNNLPLSHKVYMRNSKYPQDLVMMEGKMMSYCTTGQMWARSSYLGAVFNLTSADHLYVNVSELSLVNFEESQTFFSLYKL
notes: as for B1
Turning to B2, the binding result in series [5] is “binds”.

B3: DB-FasL (protein)
chain: PSPPPEKKELRKVAHLTGKSNSRSMPLEWEDTYGIVLLSGVKYKKGGLVINETGLYFVYSKVYFRGQSCNNLPLSHKVYMRNSKYPQDLVMMEGKMMSYCTTGQMWARSSYLGAVFNLTSADHLYVNVSELSLVNFEESQTFFGLYKL
modifications: Wild-type FasL ectodomain fused to the C-terminus (CH3) of the idarucizumab (anti-dabigatran) IgG1 heavy chain, one FasL per heavy chain. The IgG carrier and linker are left out because they do not bind Fas. Limits are taken from the sister constructs His-FasL WT and E09-FasL WT printed in the tables (PSPPPEKKEL...GLYKL).
In series [6], B3 returned a Kd of 60.6 nM. Also, in series [7], the koff (in general, the first-order rate constant of dissociation) was 0.0049 s⁻¹.

B4: His_FasL^WT (N-terminal His-tagged human FasL, wild type) (ligand)
chain: GGSPSPPPEKKELRKVAHLTGKSNSRSMPLEWEDTYGIVLLSGVKYKKGGLVINETGLYFVYSKVYFRGQSCNNLPLSHKVYMRNSKYPQDLVMMEGKMMSYCTTGQMWARSSYLGAVFNLTSADHLYVNVSELSLVNFEESQTFFGLYKL
notes: linker between the His tag and FasL; also called WT FasL; His-tagged FasL; source: FreeStyle CHO-S cells, transfected, purified (Ni-Sepharose HisTrap); not shown: His7, N-terminal, kept
B4: the binding result in series [5] is “binds”. Also, the stoichiometry N – broadly, the number of molecules, sites or subunits per partner or assembly – in series [8] came out at 3.

B5: His_FasL^E271A (ligand, human)
chain: GGSPSPPPEKKELRKVAHLTGKSNSRSMPLEWEDTYGIVLLSGVKYKKGGLVINETGLYFVYSKVYFRGQSCNNLPLSHKVYMRNSKYPQDLVMMEGKMMSYCTTGQMWARSSYLGAVFNLTSADHLYVNVSELSLVNFEASQTFFGLYKL
notes: linker between the His tag and FasL; also called A271; source: FreeStyle CHO-S cells, transfected, purified (Ni-Sepharose HisTrap); not shown: His7, N-terminal, kept
Consider B5, for which, in series [8], the “stoichiometry N” value is 3.

B6: His_FasL^R156G (ALPS mutation) (ligand, human)
chain: GGSPSPPPEKKELRKVAHLTGKSNSGSMPLEWEDTYGIVLLSGVKYKKGGLVINETGLYFVYSKVYFRGQSCNNLPLSHKVYMRNSKYPQDLVMMEGKMMSYCTTGQMWARSSYLGAVFNLTSADHLYVNVSELSLVNFEESQTFFGLYKL
notes: linker between the His tag and FasL; source: FreeStyle CHO-S cells, transfected, purified (Ni-Sepharose HisTrap); not shown: His7, N-terminal, kept
On to B6, for which the binding result in series [5] is “binds”.

B7: His_FasL^E270A (ligand, human)
chain: GGSPSPPPEKKELRKVAHLTGKSNSRSMPLEWEDTYGIVLLSGVKYKKGGLVINETGLYFVYSKVYFRGQSCNNLPLSHKVYMRNSKYPQDLVMMEGKMMSYCTTGQMWARSSYLGAVFNLTSADHLYVNVSELSLVNFAESQTFFGLYKL
notes: as for B6
For B7, the binding result in series [5] is on record as “binds”.

B8: His_FasL^D164A (printed as His_FasL^D163A in Table 1) (ligand, human)
chain: GGSPSPPPEKKELRKVAHLTGKSNSRSMPLEWEATYGIVLLSGVKYKKGGLVINETGLYFVYSKVYFRGQSCNNLPLSHKVYMRNSKYPQDLVMMEGKMMSYCTTGQMWARSSYLGAVFNLTSADHLYVNVSELSLVNFEESQTFFGLYKL
notes: as for B6
Take B8: in series [5], the binding result was “binds”.

B9: His_FasL^E163A (ligand, human)
chain: GGSPSPPPEKKELRKVAHLTGKSNSRSMPLEWADTYGIVLLSGVKYKKGGLVINETGLYFVYSKVYFRGQSCNNLPLSHKVYMRNSKYPQDLVMMEGKMMSYCTTGQMWARSSYLGAVFNLTSADHLYVNVSELSLVNFEESQTFFGLYKL
notes: linker between the His tag and FasL; also called A163; source: FreeStyle CHO-S cells, transfected, purified (Ni-Sepharose HisTrap); not shown: His7, N-terminal, kept
For B9, in series [8], the “stoichiometry N” value was found to be 3.

B10: E09 IgG1 (preclinical Fas agonist antibody) (antibody, V domains shown)
VH: QLQLQESGPGLVKPSETLSLTCTVSGASISANSYYGVWVRQSPGKGLEWVGSIAYRGNSNSGSTYYNPSLKSRATVSVDTSKNQVSLRLTSVTAADTALYYCARRQLLDDGTGYQWAAFDVWGQGTMVTVSS
VL: QSVLTQPPSVSEAPRQTVTISCSGNSFNIGRYPVNWYQQLPGKAPKLLIYYNNLRFSGVSDRFSGSKSGTSASLAIRDLLSEDEADYYCSTWDDTLKGWVFGGGTKVTVLG
The molecule B10 had a Kd in series [6] of 0.377 nM. This lies in the sub-nanomolar range.

For the origin of these results see publication PMC10657439 (Cell Death and Differentiation, 2023).
